This assay deals with tissue plasminogen activator (human) (UniProt P00750). The assay can be described thus: cell-based or functional assay.
UniProt P00750, sequence (P00750 36-562 limits assumed): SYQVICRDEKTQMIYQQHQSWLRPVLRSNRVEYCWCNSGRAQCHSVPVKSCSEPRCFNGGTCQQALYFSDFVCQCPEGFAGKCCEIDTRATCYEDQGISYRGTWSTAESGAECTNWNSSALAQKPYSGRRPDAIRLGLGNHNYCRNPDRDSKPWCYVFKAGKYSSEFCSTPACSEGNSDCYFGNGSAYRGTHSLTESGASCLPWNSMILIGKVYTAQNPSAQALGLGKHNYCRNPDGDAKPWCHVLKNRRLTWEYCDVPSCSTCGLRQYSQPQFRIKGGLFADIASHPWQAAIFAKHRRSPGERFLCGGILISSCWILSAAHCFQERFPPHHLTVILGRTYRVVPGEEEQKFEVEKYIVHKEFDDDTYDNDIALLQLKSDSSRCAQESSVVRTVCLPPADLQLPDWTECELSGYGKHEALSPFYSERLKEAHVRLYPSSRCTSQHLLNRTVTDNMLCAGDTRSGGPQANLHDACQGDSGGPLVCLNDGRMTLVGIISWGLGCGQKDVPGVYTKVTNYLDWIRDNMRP

Consider “Histidine-tagged recombinant human Annexin A2 (from UniProt Q3ZCQ2 1-193)”, for which the in vitro plasmin-generating capability of tPA (plasmin activity assay) was found to be 4 fold.
